Tests used:
[1] = target: capsid associated protein P30 of bacteriophage PR772 (bacteriophage PR772); assay: cryo-EM structure; icosahedrally averaged (I4) single-particle reconstruction of purified wild-type PR772 virions; overall 2.75 Å, capsid 2.3 Å; de-novo model of the asymmetric unit; difference density map of the vertex region
[2] = target: penton protein P31 of bacteriophage PR772 (bacteriophage PR772); assay: cryo-EM structure; localized asymmetric (C1) reconstruction of the five-fold vertex after capsid signal subtraction (about 10 Å for the class with P2; 4.41 Å for the penton) and focused classification of the penton base (4.25 Å); models fitted as rigid bodies; purified wild-type virions
[3] = target: host-recognition protein P5 of bacteriophage PR772 (bacteriophage PR772); assay: as above
[4] = target: major capsid protein P3 of bacteriophage PR772 (bacteriophage PR772); assay: cryo-EM structure; icosahedrally averaged (I4) single-particle reconstruction of purified wild-type PR772 virions; overall 2.75 Å, capsid 2.3 Å; de-novo model of the asymmetric unit; difference density map of the vertex region

“capsid associated protein P30 of bacteriophage PR772 (natural protein)” gave a stoichiometry N [1] of 2.
Work on “host-recognition protein P5 of bacteriophage PR772 (natural protein)” yielded a stoichiometry N (copies of P5 in the penton base) [2] of 3, a stoichiometry N (copies of P31 in the penton base) [2] of 2 and a stoichiometry N [3] of 3.
“major capsid protein P3 of bacteriophage PR772 (natural protein)” was tested, and the stoichiometry N [4] was 3.
For “receptor-binding protein P2 of bacteriophage PR772 (natural protein)”, the percent of vertex sub-particles with a density representing P2 [3] was 16%.

Reference: publication PMC6750898
